Positions count from the first letter of the chain named. In names and notes the source's numbering stands.
T1: monomeric recombinant human Notch3 extracellular domain (containing EGF like domains 1-11) fusion protein (human, UniProt Q9UM47 40-467)
T1 construct: domain: EGF like domains 1-11; also called monomeric rhNotch3
T1 sequence (looked up): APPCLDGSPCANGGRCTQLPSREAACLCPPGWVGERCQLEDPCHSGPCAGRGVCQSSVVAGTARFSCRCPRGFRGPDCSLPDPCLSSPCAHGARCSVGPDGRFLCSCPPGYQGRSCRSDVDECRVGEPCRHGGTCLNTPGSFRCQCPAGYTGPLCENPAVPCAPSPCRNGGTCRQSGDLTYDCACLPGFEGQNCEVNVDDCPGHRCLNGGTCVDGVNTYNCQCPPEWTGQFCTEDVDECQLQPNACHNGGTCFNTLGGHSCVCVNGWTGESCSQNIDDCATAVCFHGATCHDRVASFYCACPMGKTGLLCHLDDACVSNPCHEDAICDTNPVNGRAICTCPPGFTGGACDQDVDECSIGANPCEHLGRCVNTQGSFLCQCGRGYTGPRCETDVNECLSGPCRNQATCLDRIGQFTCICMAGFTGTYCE

B1: Hu4F11-70 (antibody, human IgG1, kappa, V domains shown)
VH: EVQLLESGGGLVQPGGSLRLSCAASGFTFSHYDMSWVRQAPGKGLEWVSYISRGGGSTYYPDSVKGRFTISRDNSKNTLYLQMNSLRAEDTAVYYCGRHATTAYWYFDVWGQGTMVTVSS
VL: DVVMTQTPLSLSVTPGQPASISCRSSQSLVHTHGNTYLHWYLQKPGQSPQLLIYKVSNRFSGVPDRFSGSGSGTDFTLKISRVEAEDVGVYFCSQSTHVPWTFGQGTKVEIKR
notes: Humanized, human IgG1 kappa; Hv3-23 A28T S31H T62S heavy + Kv2D-29 N28H kappa
B2: Hu4F11-80 (antibody, human IgG1, kappa, V domains shown)
VH: B1 VH with T28A
VL: B1 VL with H33Q
notes: Humanized, human IgG1 kappa; Hv3-23 S31H T62S heavy + Kv2D-29 N28Q kappa
B3: Hu4F11-73 (antibody, human IgG1, kappa, V domains shown)
VH: B1 VH with H31N
VL: B1 VL with H33Y
notes: Humanized, human IgG1 kappa; Hv3-23 A28T S31N T62S heavy + Kv2D-29 N28Y kappa
B4: Hu4F11-76 (antibody, human IgG1, kappa, V domains shown)
VH: B1 VH with T28A
VL: B1 VL with H33Y
notes: Humanized, human IgG1 kappa; Hv3-23 S31H T62S heavy + Kv2D-29 N28Y kappa
B5: Hu4F11-77 (antibody, human IgG1, kappa, V domains shown)
VH: B1 VH with H31N
VL: B1 VL with H33Q
notes: Humanized, human IgG1 kappa; Hv3-23 A28T S31N T62S heavy + Kv2D-29 N28Q kappa
B6: Hu4F11-71 (antibody, human IgG1, kappa, V domains shown)
VH: B1 VH with H31S
VL: B1 VL
notes: Humanized, human IgG1 kappa; Hv3-23 A28T T62S heavy + Kv2D-29 N28H kappa
B7: Hu4F11-69 (antibody, human IgG1, kappa, V domains shown)
VH: B1 VH with H31N
VL: B1 VL
notes: Humanized, human IgG1 kappa; Hv3-23 A28T S31N T62S heavy + Kv2D-29 N28H kappa
B8: Hu4F11-79 (antibody, human IgG1, kappa, V domains shown)
VH: B1 VH with H31S
VL: B1 VL with H33Q
notes: Humanized, human IgG1 kappa; Hv3-23 A28T T62S heavy + Kv2D-29 N28Q kappa
B9: Hu4F11-75 (antibody, human IgG1, kappa, V domains shown)
VH: B1 VH with H31S
VL: B1 VL with H33Y
notes: Humanized, human IgG1 kappa; Hv3-23 A28T T62S heavy + Kv2D-29 N28Y kappa
B10: Hu4F11-74 (antibody, human IgG1, kappa, V domains shown)
VH: B1 VH
VL: B1 VL with H33Y
notes: Humanized, human IgG1 kappa; Hv3-23 A28T S31H T62S heavy + Kv2D-29 N28Y kappa
B11: Hu4F11-78 (antibody, human IgG1, kappa, V domains shown)
VH: B1 VH
VL: B1 VL with H33Q
notes: Humanized, human IgG1 kappa; Hv3-23 A28T S31H T62S heavy + Kv2D-29 N28Q kappa
B12: Hu4F11-72 (antibody, human IgG1, kappa, V domains shown)
VH: B1 VH with T28A
VL: B1 VL
notes: Humanized, human IgG1 kappa; Hv3-23 S31H T62S heavy + Kv2D-29 N28H kappa
B13: Hu4F11-32 (antibody, human IgG1, kappa, V domains shown)
VH: B1 VH with T28A, H31S, S63T
VL: B1 VL with H33N
notes: Humanized, human IgG1 kappa; Sh4F11 Hv3-23 heavy + Hu4F11 Kv2D-29 kappa

target: T1, monomeric recombinant human Notch3 …; assay: SPR BIAcore T100, monomeric rhNotch3 analyte, 37 C, average of Table 16 and additional measurements
Procedure: (§1) Goat anti-human IgGs (Fc fragment specific, Jackson ImmunoResearch, West Grove, Pa.) were immobilized on carboxymethylated dextran CM4 sensor chips by amine coupling, according to a standard protocol. Analyses were performed at 25 and 37° C. using PBS containing 0.05% surfactant P20 as running buffer. The antibodies were captured in individual flow cells at a flow rate of 10 μL/minute. Injection time was varied for each antibody to yield an Rmax between 30 and 60 RU. Buffer or Notch3 protein diluted in running buffer was injected sequentially over a reference surface (no antibody captured) and the active surface (antibody to be tested) for 240 seconds at 60 μL/minute. The dissociation phase was monitored for up to 900 seconds. The surface was then regenerated with two 60-second injections of 10 mM Glycine-HCl, pH 2.25, at a flow rate of 30 μL/minute. The Notch3 concentration range tested was 50 nM to 6.25 nM.

Binder	Kd [nM]	koff [s⁻¹]	kon [M⁻¹ s⁻¹]
B1	7.5	0.0039	690000
B2	14	0.0056	590000
B3	11	0.0046	490000
B4	8.2	0.0064	980000
B5	8.6	0.0074	1.2e+06
B6	9.2	0.0095	1.1e+06
B7	8.5	0.0037	710000
B8	16	0.0091	900000
B9	10	0.013	1.7e+06
B10	10	0.0051	490000
B11	9	0.006	820000
B12	7	0.0069	710000
B13	7.6	0.084	7.4e+06

target: T2, monomeric recombinant cynomologus monkey Notch3 extracellular domain (containing EGF like domains 1-12) … (cynomologus monkey); assay: SPR BIAcore T100, antibody captured by anti-human IgG Fc, monomeric rcNotch3 analyte, 25 C
T2 construct: domain: EGF like domains 1-12; also called monomeric rcNotch3
Procedure: (§2) The binding affinities and kinetics of binding of chimeric and humanized antibodies to monomeric recombinant human Notch3 extracellular domain (containing EGF like domains 1-11) fusion protein (monomeric rhNotch3) and monomeric recombinant cynomologus monkey Notch3 extracellular domain (containing EGF like domains 1-12) fusion protein (monomeric rcNotch3) were measured by surface plasmon resonance, using a BIAcore® T100 instrument (GE Healthcare, Piscataway, N.J.).
as §1
Kinetic parameters were determined using the kinetic function of the BIAevaluation software (GE Healthcare) with double reference subtraction. Kinetic parameters for each antibody, kₐ (association rate constant), kd (dissociation rate constant), and KD (equilibrium dissociation constant) were determined.

Binder	Kd [nM]	koff [s⁻¹]	kon [M⁻¹ s⁻¹]
B1	5.2	0.001	200000
B2	4	0.0032	820000
B3	2.6	0.0019	760000
B4	2.5	0.0019	780000
B5	2.6	0.0025	960000
B6	2.7	0.004	1.5e+06
B7	7.7	0.00094	120000
B8	3.4	0.0046	1.3e+06
B9	3.7	0.0026	720000
B10	2.8	0.0025	900000
B11	2.2	0.0038	1.8e+06
B12	1.6	0.0045	2.8e+06
B13	18	0.0075	790000

target: T2, monomeric recombinant cynomologus …; assay: SPR BIAcore T100, antibody captured by anti-human IgG Fc, monomeric rcNotch3 analyte, 37 C
Procedure: as §2, §1

Binder	Kd [nM]	koff [s⁻¹]	kon [M⁻¹ s⁻¹]
B1	9.1	0.0029	370000
B2	12	0.01	910000
B3	15	0.0063	500000
B4	12	0.0062	540000
B5	12	0.01	910000
B6	14	0.0056	410000
B7	11	0.0038	400000
B8	23	0.021	980000
B9	24	0.0089	380000
B10	12	0.0045	440000
B11	11	0.007	660000
B12	9.8	0.0032	440000
B13	32	0.016	500000

target: T1, monomeric recombinant human Notch3 …; assay: SPR BIAcore T100, antibody captured by anti-human IgG Fc, monomeric rhNotch3 analyte, 37 C
Procedure: as §2, §1

Binder	Kd [nM]	koff [s⁻¹]	kon [M⁻¹ s⁻¹]
B1	3	0.0028	940000
B2	3.8	0.0041	1.1e+06
B3	5.9	0.0013	210000
B4	3.3	0.0055	1.7e+06
B5	3.3	0.0073	2.2e+06
B6	3	0.0037	1.2e+06
B7	2.9	0.0038	1.3e+06
B8	3.2	0.006	1.8e+06
B9	3.4	0.009	2.7e+06
B10	3.9	0.0022	560000
B11	3.8	0.0055	1.5e+06
B12	5.2	0.00094	180000
B13	2.7	0.0046	1.7e+06

From US20180230213A1 (AVEO PHARMACEUTICALS, published 2018)
